Drawing on paper PMC8460140 (2021), this text covers Kd for 2 molecules.

The target in this experiment is T1, His6-tagged CB1R-CTD (amino acids 400-472), labeled with 5-IAF (UniProt P21554 400-472, labeled with 5-(iodoacetamido)fluorescein (5-IAF); labeled residue not stated).
T1 chain: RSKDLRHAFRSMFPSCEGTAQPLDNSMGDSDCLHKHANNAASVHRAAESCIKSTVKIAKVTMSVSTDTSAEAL
Nature of the experiment: FP.

B1: His6-tagged BiP-IR (amino acids 497-654), recombinant (domain or fragment)
chain: IEVTFEIDVNGILRVTAEDKGTGNKNKITITNDQNRLTPEEIERMVNDAEKFAEEDKKLKERIDTRNELESYAYSLKNQIGDKEKLGGKLSSEDKETMEKAVEEKIEWLESHQDADIEDFKAKKKELEEIVQPIISKLYGSAGPPPTGEEDTAEKDEL
What is called Kd is the equilibrium constant for the complex coming apart. A lower Kd goes with higher affinity. For B1, binding was characterised by a dissociation constant (Kd) of 17.3 µM.

B2: His6-tagged BiP, recombinant (natural protein)
chain: not shown
B2 gave a Kd of 17.7 µM.
